The source of these data is patent US20200317768A1 (published 2020).

Residue numbers refer to the chain shown, from its start.

Experiment [1] has as its target T1, cynomolgus monkey FcγRIIa1 extracellular domain, C-terminal His-tag (cynomolgus monkey).
T1 construct: also called cyno FcγRIIa1; cynoFcgRIIa1; not shown: His-tag added to C-terminus
T1 chain: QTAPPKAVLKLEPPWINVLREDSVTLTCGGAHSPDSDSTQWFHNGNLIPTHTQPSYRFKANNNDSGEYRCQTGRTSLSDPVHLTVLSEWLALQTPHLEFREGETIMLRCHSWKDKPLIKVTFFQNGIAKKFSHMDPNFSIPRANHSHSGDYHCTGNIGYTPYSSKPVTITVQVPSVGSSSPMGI
Briefly: SPR (Biacore), antibody captured, FcgR analyte, 25 C. The method, then:
(§1) The kinetic analysis of interactions between these antibodies and FcγR was carried out using BIACORE® T200 or BIACORE® 4000 (GE Healthcare). HBS-EP+ (GE Healthcare) was used as the running buffer, and the measurement temperature was set to 25° C. A chip produced by immobilizing Protein A. Protein A/G or mouse anti-human IgG kappa light chain (BD Biosciences) onto a Series S Sensor Chip CM4 or CM5 (GE Healthcare) by the amine-coupling method was used. […] After the measurement, the antibody captured on the chip was washed off by allowing reaction with 10 mM glycine-HCl, pH1.5 and 25 mM NaOH so that the chip was regenerated and used repeatedly. The sensorgrams obtained as measurement results were analyzed by the 1:1 Langmuir binding model using the BIACORE® Evaluation Software to calculate the binding rate constant ka (L/mol/s) and dissociation rate constant kd (l/s), and the dissociation constant KD (mol/L) was calculated from these values. […] Regarding such interactions, KD values were calculated using the following 1:1 binding model described in BIACORE® T100 Software Handbook BR1006-48 Edition AE.
(§2) The behavior of interacting molecules according to the 1:1 binding model on BIACORE® can be described by Equation 1: Req=C·R max/(KD+C)+RI, wherein, Req is a plot of steady-state binding levels to analyte concentration. C is concentration, RI is bulk refractive index contribution in the sample, and Rmax is analyte binding capacity of the surface. When this equation is rearranged, KD can be expressed as Equation 2: KD=C·Rmax/(Req−RI)−C. KD can be calculated by substituting the values of Rmax, RI, and C into Equation 1 or Equation 2. From the current measurement conditions, RI=0, C=2 μmol/L can be used.
Background: In SPR one partner is held on a chip, and binding of the other changes the refractive index at the surface.

The target in experiment [2] is T2, human FcγRIIaR extracellular domain, C-terminal His-tag (human, UniProt P12318 34-217).
T2 construct: also called human FcγRIIa (type R); FcgRIIaR; not shown: His-tag added to C-terminus
T2 chain: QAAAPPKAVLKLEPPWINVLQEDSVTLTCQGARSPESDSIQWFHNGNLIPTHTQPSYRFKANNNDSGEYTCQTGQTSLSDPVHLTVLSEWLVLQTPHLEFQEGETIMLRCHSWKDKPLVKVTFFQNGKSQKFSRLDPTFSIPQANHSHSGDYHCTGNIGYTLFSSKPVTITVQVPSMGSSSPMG
The description is as above. The procedure: as §1, §2

Experiment [3] has as its target T3, human FcγRIIaH extracellular domain, C-terminal His-tag (human, UniProt P12318 34-217).
T3 construct: also called human FcγRIIa (type H); FcgRIIaH; not shown: His-tag added to C-terminus
T3 sequence: T2 chain with R134H
Described as above. The method, then: as §1, §2

Experiment [4] addresses T4, human FcγRIIIaV extracellular domain, C-terminal His-tag (human, UniProt P08637 17-208).
T4 construct: also called FcgRIIIaV; not shown: His-tag added to C-terminus
Described as above. The method, then:
as §1, §2

In experiment [5] the target is T5, cynomolgus monkey FcγRIIIaS extracellular domain, C-terminal His-tag (cynomolgus monkey, UniProt A3RFZ7 21-206 (rhesus entry)).
T5 construct: also called cyno FcγRIIIaS; cynoFcγRIIIaS; not shown: His-tag added to C-terminus
The experiment is described as above. The procedure: as §1, §2

The target in experiment [6] is T6, human FcγRIIb extracellular domain, C-terminal His-tag (human, UniProt P31994 43-217).
T6 construct: also called FcgRIIb (human); not shown: His-tag added to C-terminus
T6 sequence: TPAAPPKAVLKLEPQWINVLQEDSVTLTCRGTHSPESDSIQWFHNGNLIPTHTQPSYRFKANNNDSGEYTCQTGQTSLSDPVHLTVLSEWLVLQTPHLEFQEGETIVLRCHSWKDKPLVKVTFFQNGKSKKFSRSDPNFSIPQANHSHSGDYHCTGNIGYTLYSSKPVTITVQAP
The experiment is described as above. The procedure: as §1, §2

Experiment [7] concerns the target T7, cynomolgus monkey FcγRIIb extracellular domain, C-terminal His-tag (cynomolgus monkey).
T7 construct: also called cyno FcγRIIb; cynoFcγRIIb; not shown: His-tag added to C-terminus
T7 chain: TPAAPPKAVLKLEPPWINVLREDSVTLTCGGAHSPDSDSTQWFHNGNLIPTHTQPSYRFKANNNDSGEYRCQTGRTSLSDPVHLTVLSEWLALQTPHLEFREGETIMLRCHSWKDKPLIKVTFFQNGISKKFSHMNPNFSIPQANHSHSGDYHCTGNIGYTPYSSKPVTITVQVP
Described as above. The method, then:
as §1, §2

Experiment [8] addresses T8, cynomolgus monkey FcγRIIa3 extracellular domain, C-terminal His-tag (cynomolgus monkey).
T8 construct: also called cyno FcγRIIa3; cynoFcgRIIa3; not shown: His-tag added to C-terminus
T8 chain: T1 chain with P95T, T121A, A128S, H133P, D135N
Described as above. The procedure:
as §1, §2

Experiment [9] addresses T5, cynomolgus monkey FcγRIIIaS …. Nature of the experiment: SPR (Biacore), KD of SG1 / KD of variant.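 Also: relative to parent M103205H795-SG1 carrying the SG1 human heavy chain constant region.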

T5 sequence (A3RFZ7 21-206): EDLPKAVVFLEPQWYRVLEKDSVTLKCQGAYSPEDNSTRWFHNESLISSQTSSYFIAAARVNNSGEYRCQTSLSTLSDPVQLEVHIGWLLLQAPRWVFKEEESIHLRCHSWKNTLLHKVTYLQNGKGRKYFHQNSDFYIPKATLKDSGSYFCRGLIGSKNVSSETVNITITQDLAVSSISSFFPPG
T4 sequence (P08637 17-208 F176V): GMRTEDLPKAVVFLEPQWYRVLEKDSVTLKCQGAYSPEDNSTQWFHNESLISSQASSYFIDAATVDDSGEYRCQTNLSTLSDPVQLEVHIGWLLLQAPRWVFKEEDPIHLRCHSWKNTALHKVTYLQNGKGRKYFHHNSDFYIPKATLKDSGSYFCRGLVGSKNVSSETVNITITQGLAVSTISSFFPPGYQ

B1: MS_M103205H795-SG1/M103202L889-SK1 (antibody, human IgG1, kappa)
heavy: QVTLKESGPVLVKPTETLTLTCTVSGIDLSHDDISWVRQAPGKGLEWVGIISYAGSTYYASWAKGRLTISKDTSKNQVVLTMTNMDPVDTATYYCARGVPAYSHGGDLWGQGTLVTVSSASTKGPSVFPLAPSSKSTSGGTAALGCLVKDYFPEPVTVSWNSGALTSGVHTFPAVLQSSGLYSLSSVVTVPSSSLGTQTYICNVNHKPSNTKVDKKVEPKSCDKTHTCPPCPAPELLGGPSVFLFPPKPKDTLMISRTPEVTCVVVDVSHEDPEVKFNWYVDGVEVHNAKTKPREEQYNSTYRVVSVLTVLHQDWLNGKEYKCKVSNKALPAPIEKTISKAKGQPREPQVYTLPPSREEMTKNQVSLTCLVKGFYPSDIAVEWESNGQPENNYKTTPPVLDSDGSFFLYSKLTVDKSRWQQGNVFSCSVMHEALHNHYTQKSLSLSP
light: DIVMTQSPATLSLSPGERATLSCTSSQSVYHANWLSWFQQKPGQPPKLLIYWASTLAYGVPSRFSGSGSGTDFTLTISSLQPEDAATYYCAGGYGGGRYAFGQGTKVEIKRTVAAPSVFIFPPSDEQLKSGTASVVCLLNNFYPREAKVQWKVDNALQSGNSQESVTEQDSKDSTYSLSSTLTLSKADYEKHKVYACEVTHQGLSSPVTKSFNRGEC
notes: Parent antibody; also called MS1032LO06-SG1
For B1, the Kd in experiment [1] was determined as 3200 nM; in experiment [2], 1100 nM; in experiment [3], 690 nM; in experiment [4], 810 nM; in [5], 360 nM; in experiment [6], 4600 nM. The Kd in [7] stood at 1800 nM; in experiment [8], 17000 nM. Moreover, the “KD fold (SG1 = 1)” value in experiment [9] worked out at 1 fold.

B2: M103205H795-MY219/M103202L889-SK1 (antibody, human IgG1, kappa)
heavy: QVTLKESGPVLVKPTETLTLTCTVSGIDLSHDDISWVRQAPGKGLEWVGIISYAGSTYYASWAKGRLTISKDTSKNQVVLTMTNMDPVDTATYYCARGVPAYSHGGDLWGQGTLVTVSSASTKGPSVFPLAPSSKSTSGGTAALGCLVKDYFPEPVTVSWNSGALTSGVHTFPAVLQSSGLYSLSSVVTVPSSSLGTQTYICNVNHKPSNTKVDKKVEPKSCDKTHTCPPCPAPELLGYPSVFLFPPKPKDTLMISRTPEVTCVVVDVSDEDPEVKFNWYVDGVEVHNAKTKPREEQYNSTYRVVSVLTVLHQDWLNGKEYKCKVSNKALPKPIEKTISKAKGQPREPQVYTLPPSREEMTKNQVSLTCLVKGFYPSDIAVEWESNGQPENNYKTTPPVLDSDGSFFLYSKLTVDKSRWQQGNVFSCSVMHEALHNHYTQKSLSLSP
light: B1 light
Turning to B2, the Kd stood at 3500 nM in [1]; 160 nM in experiment [2]; 2300 nM in experiment [3]; 91000 nM in [4]; 6200 nM in [5]; 340 nM in experiment [6]. Also, the values for the Kd in [7] and in experiment [8] were 1300 nM and 5500 nM, respectively. Besides, the “KD fold (SG1 = 1)” value in [9] stood at 0.06 fold.

B3: M103205H795-MY228/M103202L889-SK1 (antibody, human IgG1, kappa)
heavy: B2 heavy with Q297L
light: B1 light
Take B3: the Kd in experiment [1] turned out to be 3000 nM; in experiment [2], 100 nM; in experiment [3], 2200 nM; in [4], 140000 nM; in experiment [5], 9700 nM; in experiment [6], 300 nM. Besides, in experiment [7], the Kd is 1100 nM. In experiment [9], the “KD fold (SG1 = 1)” value is 0.04 fold.

B4: M103205H795-MY213/M103202L889-SK1 (antibody, human IgG1, kappa)
heavy: B2 heavy with G238N, Y239G, P398K
light: B1 light
Take B4: the Kd was determined as 530 nM in [1]; 630 nM in experiment [2]; 350 nM in experiment [3]; 11000 nM in [4]; 1900 nM in experiment [5]; 360 nM in [6]. Also, the Kd in experiment [7] was 160 nM; in [8] it was 1300 nM. In addition, the “KD fold (SG1 = 1)” value in experiment [9] is 0.19 fold.

B5: M103205H795-MY142/M103202L889-SK1 (antibody, human IgG1, kappa)
heavy: B2 heavy with G238E, Y239G, D270E, K332A, P398M
light: B1 light
B5: the Kd in experiment [1] worked out at 4100 nM; in experiment [2], 170 nM; in experiment [3], 190 nM; in [4], 530 nM; in experiment [5], 140 nM; in experiment [6], 950 nM. In addition, the Kd turned out to be 1800 nM in experiment [7] and 25000 nM in experiment [8]. In addition, the “KD fold (SG1 = 1)” value in [9] came to 2.57 fold.

B6: M103205H795-MY229/M103202L889-SK1 (antibody, human IgG1, kappa)
heavy: B2 heavy with Q297L, P398K
light: B1 light
Regarding B6, the Kd in [1] was determined as 1500 nM; in experiment [2], 81 nM; in experiment [3], 980 nM; in experiment [5], 4200 nM; in [6], 150 nM; in experiment [7] it was 470 nM. This molecule showed a Kd in experiment [8] of 1900 nM. For the same molecule, the “KD fold (SG1 = 1)” value in experiment [9] amounted to 0.09 fold.

B7: M103205H795-MY143/M103202L889-SK1 (antibody, human IgG1, kappa)
heavy: B2 heavy with G238S, Y239G, D270E, K332A, P398M
light: B1 light
Turning to B7, the Kd was found to be 1100 nM in [1]; 83 nM in experiment [2]; 37 nM in experiment [3]; 1500 nM in experiment [4]; 280 nM in experiment [5]; 680 nM in experiment [6]. Moreover, the Kd in experiment [7] was determined as 460 nM; in [8] it was 2900 nM. Besides, the “KD fold (SG1 = 1)” value in [9] was 1.29 fold.

B8: M103205H795-MY209/M103202L889-SK1 (antibody, human IgG1, kappa)
heavy: B2 heavy with G238N, Y239G, Q297L, K328T
light: B1 light
Consider B8, for which the Kd in [1] was 630 nM; in experiment [2], 830 nM; in experiment [3] it was 570 nM; in experiment [4], 14000 nM; in experiment [5], 2200 nM; in experiment [6], 500 nM. In addition, the Kd in experiment [7] came out at 190 nM; in experiment [8], 1900 nM. Further, the “KD fold (SG1 = 1)” value in experiment [9] turned out to be 0.16 fold.

For orientation: Kd means the free concentration of one partner at which half of the binding sites on the other are occupied at equilibrium, for simple one-to-one binding.
